Measurements from patent US11267868 (dated 2022).
Numbering of substitutions follows the chain as printed. Where two headings read alike, the source gives them in different places. Each block holds one binder with its values, some of them ahead of it.

How the values were obtained:
Experiment in all cases: SPR
FcgRIIIaV [1] = target: T1, FcgRIIIaV (human, UniProt P08637)
FcgRIIb [2] = target: T2, FcgRIIb (human, UniProt P31994)
T2 chain: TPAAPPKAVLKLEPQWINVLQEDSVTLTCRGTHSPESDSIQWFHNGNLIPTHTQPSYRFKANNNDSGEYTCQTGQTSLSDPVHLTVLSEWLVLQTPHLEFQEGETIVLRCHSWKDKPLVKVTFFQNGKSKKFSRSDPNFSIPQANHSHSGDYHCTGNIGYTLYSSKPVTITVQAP

FcgRIIaH [3] = target: T3, FcgRIIaH (human, UniProt P12318)
T3 chain: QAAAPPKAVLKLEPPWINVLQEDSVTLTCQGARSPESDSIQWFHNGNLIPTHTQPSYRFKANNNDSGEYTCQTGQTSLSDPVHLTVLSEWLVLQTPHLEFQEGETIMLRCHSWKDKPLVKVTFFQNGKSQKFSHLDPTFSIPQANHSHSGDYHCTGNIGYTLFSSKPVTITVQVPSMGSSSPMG

FcgRIIaR [4] = target: T4, FcgRIIaR (human, UniProt P12318)
T4 chain: T3 chain with H134R

FcgRIa [5] = target: T5, FcgRIa (human, UniProt P12314)
T5 chain: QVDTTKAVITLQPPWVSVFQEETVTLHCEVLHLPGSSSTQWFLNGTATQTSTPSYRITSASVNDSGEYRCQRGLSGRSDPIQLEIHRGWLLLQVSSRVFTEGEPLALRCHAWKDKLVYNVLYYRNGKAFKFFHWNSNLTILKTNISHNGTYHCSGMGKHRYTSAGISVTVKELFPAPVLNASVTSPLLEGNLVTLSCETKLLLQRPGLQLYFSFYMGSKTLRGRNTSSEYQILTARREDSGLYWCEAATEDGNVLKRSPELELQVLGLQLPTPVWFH

FcgRIIIaV [6] = target: T1, FcgRIIIaV; remark: listed apart in the source
FcgRIIaR [7] = target: T4, FcgRIIaR
FcgRIa [8] = target: T5, FcgRIa
FcgRIIb [9] = target: T2, FcgRIIb
FcgRIIaH [10] = target: T3, FcgRIIaH

T1 sequence (P08637 17-208 F176V): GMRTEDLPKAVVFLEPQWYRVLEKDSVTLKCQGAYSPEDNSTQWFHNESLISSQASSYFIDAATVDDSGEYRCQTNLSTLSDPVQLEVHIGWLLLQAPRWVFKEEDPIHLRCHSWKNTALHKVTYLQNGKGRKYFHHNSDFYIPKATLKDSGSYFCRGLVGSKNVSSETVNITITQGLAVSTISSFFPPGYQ

Kd (FcgRIIIaV [1]): 66 µM
Kd (FcgRIIb [2]): 4.8 µM
Kd (FcgRIIaH [3]): 150 µM
Kd (FcgRIIaR [4]): 100 µM
Kd (FcgRIa [5]): 230 nM
B1: IL6R-P727/IL6R-L (antibody)
chain 1: QVQLQESGPGLVKPSETLSLTCAVSGHSISHDHAWSWVRQPPGEGLEWIGFISYSGITNYNPSLQGRVTISRDNSKNTLYLQMNSLRAEDTAVYYCARSLARTTAMDYWGEGTLVTVSSASTKGPSVFPLAPSSKSTSGGTAALGCLVKDYFPEPVTVSWNSGALTSGVHTFPAVLQSSGLYSLSSVVTVPSSSLGTQTYICNVNHKPSNTKVDKKVEPKSCDKTHTCPPCPAPELLGQDSVMLFPPKPKDTLMISRTPEVTCVVVDVSPEDPEVKFNWYVDGVEVHNAKTKPREEQENSTYRVVSVLTVLHQDWLNGKEYKCKVSNKALPHPIEKTISKAKGQPREPQVYTLPPSRDELTKNQVSLTCLVKGFYPSDIAVEWESNGQPENNYKTTPPVLDSDGSFFLYSKLTVDKSRWQQGNVFSCSVMHEALHNHYTQKSLSLSP
chain 2: not shown

Kd (FcgRIIIaV [1]): 50 µM
Kd (FcgRIIb [2]): 3.5 µM
Kd (FcgRIIaH [3]): 110 µM
Kd (FcgRIIaR [4]): 51 µM
Kd (FcgRIa [5]): 18 nM
B2: IL6R-P653/IL6R-L (antibody)
chain 1: B1 chain 1 with Q239G, H332A
chain 2: not shown

Kd (FcgRIIIaV [1]): 76 µM
Kd (FcgRIIb [2]): 2.9 µM
Kd (FcgRIIaH [3]): 100 µM
Kd (FcgRIIaR [4]): 72 µM
Kd (FcgRIa [5]): 700 nM
B3: IL6R-P732/IL6R-L (antibody)
chain 1: B1 chain 1 with L237F, Q239G, S326H, H332A
chain 2: not shown

Kd (FcgRIIIaV [1]): 65 µM
Kd (FcgRIIb [2]): 3.1 µM
Kd (FcgRIIaH [3]): 110 µM
Kd (FcgRIIaR [4]): 47 µM
Kd (FcgRIa [5]): 17 nM
B4: IL6R-P657/IL6R-L (antibody)
chain 1: B1 chain 1 with Q239G, P270H, H332Y
chain 2: not shown

Kd (FcgRIIIaV [1]): 53 µM
Kd (FcgRIIb [2]): 10 µM
Kd (FcgRIIaH [3]): 150 µM
Kd (FcgRIIaR [4]): 110 µM
Kd (FcgRIa [5]): 68 nM
B5: IL6R-P731/IL6R-L (antibody)
chain 1: B1 chain 1 with S326H, H332A
chain 2: not shown

Kd (FcgRIIIaV [1]): 48 µM
Kd (FcgRIIb [2]): 4.3 µM
Kd (FcgRIIaH [3]): 130 µM
Kd (FcgRIIaR [4]): 72 µM
Kd (FcgRIa [5]): 760 nM
B6: IL6R-P691/IL6R-L (antibody)
chain 1: B1 chain 1 with L237F, P270H, H332A
chain 2: not shown

Kd (FcgRIIIaV [6]): 72 µM
Kd (FcgRIIaR [7]): 24 µM
Kd (FcgRIa [8]): 720 nM
Kd (FcgRIIb [9]): 1200 nM
Kd (FcgRIIaH [10]): 170 µM
B7: IL6R-P652/IL6R-L (antibody)
chain 1: B1 chain 1 with E235D, Q239D, M243F, V266I, S269Y, P270E, P273G, E298D, H332R, P398M
chain 2: not shown

Kd (FcgRIIIaV [1]): 71 µM
Kd (FcgRIIb [2]): 1.4 µM
Kd (FcgRIIaH [3]): 96 µM
Kd (FcgRIIaR [4]): 33 µM
Kd (FcgRIa [5]): 830 nM
B8: IL6R-P658/IL6R-L (antibody)
chain 1: B1 chain 1 with L237F, Q239G, P270H, H332A
chain 2: not shown

Kd (FcgRIIIaV [1]): 44 µM
Kd (FcgRIIb [2]): 5.3 µM
Kd (FcgRIIaH [3]): 130 µM
Kd (FcgRIIaR [4]): 60 µM
Kd (FcgRIa [5]): 8.6 nM
B9: IL6R-P605/IL6R-L (antibody)
chain 1: B1 chain 1 with Q239G, M243F, P270H, E298D, S300A, H332A
chain 2: not shown

Kd (FcgRIIIaV [1]): 30 µM
Kd (FcgRIIb [2]): 5.3 µM
Kd (FcgRIIaH [3]): 110 µM
Kd (FcgRIIaR [4]): 50 µM
Kd (FcgRIa [5]): 7.4 nM
B10: IL6R-P660/IL6R-L (antibody)
chain 1: B1 chain 1 with Q239G, M243F, P270H, E298Y, S300A, S326N, H332A
chain 2: not shown

Kd (FcgRIIIaV [1]): 40 µM
Kd (FcgRIIb [2]): 5.6 µM
Kd (FcgRIIaH [3]): 150 µM
Kd (FcgRIIaR [4]): 68 µM
Kd (FcgRIa [5]): 7.8 nM
B11: IL6R-P693/IL6R-L (antibody)
chain 1: B1 chain 1 with Q239G, M243F, P270H, S300A, H332A
chain 2: not shown

Kd (FcgRIIIaV [1]): 73 µM
Kd (FcgRIIb [2]): 6.4 µM
Kd (FcgRIIaH [3]): 160 µM
Kd (FcgRIIaR [4]): 85 µM
Kd (FcgRIa [5]): 80 nM
B12: IL6R-P659/IL6R-L (antibody)
chain 1: B1 chain 1 with P270H, H332A
chain 2: not shown

Kd (FcgRIIIaV [1]): 42 µM
Kd (FcgRIIb [2]): 5.1 µM
Kd (FcgRIIaH [3]): 130 µM
Kd (FcgRIIaR [4]): 81 µM
Kd (FcgRIa [5]): 7 nM
B13: IL6R-P687/IL6R-L (antibody)
chain 1: B1 chain 1 with Q239G, M243F, P270H, E298Y, S300A, S326N
chain 2: not shown

Kd (FcgRIIIaV [1]): 46 µM
Kd (FcgRIIb [2]): 2.7 µM
Kd (FcgRIIaH [3]): 58 µM
Kd (FcgRIIaR [4]): 42 µM
Kd (FcgRIa [5]): 18 nM
B14: IL6R-P655/IL6R-L (antibody)
chain 1: B1 chain 1 with Q239G, P270H, S326H, H332A
chain 2: not shown

Kd (FcgRIIIaV [1]): 63 µM
Kd (FcgRIIb [2]): 4 µM
Kd (FcgRIIaH [3]): 140 µM
Kd (FcgRIIaR [4]): 74 µM
Kd (FcgRIa [5]): 310 nM
B15: IL6R-P690/IL6R-L (antibody)
chain 1: B1 chain 1 with P270H
chain 2: not shown
